We go through one substance from publication PMC4943706.

For the experiment, the target named is Factor Xa. The experiment is described as follows: SPR; FXa immobilised by amine coupling on a CM5 chip (1455.7 RU); Lofaxin as analyte at 1.95-31.25 nM; Biacore T100, 25°C, HBS-P buffer (10 mM HEPES, 150 mM NaCl, 0.005% P20, pH 7.4); global fit to the 1:1 Langmuir model.

What is called Kd is the equilibrium constant for the complex coming apart. Low readings indicate higher affinity, high ones lower affinity. On to “recombinant Lofaxin (Lufaxin-like salivary protein of Bichromomyia olmeca) (natural protein)”, for which the Kd is 1.83 nM. In other words, the single-digit nanomolar range.
